Tests used:
[1] = test system: human skin explants or xenograted human skin; experiment: Confocal imaging of fluorescent dye distribution in ETA-desquamated skin (Example 2); details: for skin permeability after removal of S.C. by ETA: ETA 100 μg/mL treated vs untreated skin
Protocol: Human skin samples were fixed in 10% formaldehyde overnight and then embedded in paraffin. Samples were cut using a microtome to a thickness of 6 μM and baked on slides for 1 hour in a dry heat incubator at 58° C. Nuclei and eosinophillic structures were visualized by hematoxylin and eosin staining, respectively. The hematoxylin stains nuclei blue and eosins stains eosinophillic structures different shades of red. Histological images were taken with an inverted microscope.
The skin was either subjected to no treatment or application of ETA at 100 μg/mL.
To image the distribution of each dye in the human skin, human skin specimens were collected at 6, 12, 18 and 24 hours. Ordinary skin with intact S.C. and desquamated skin using ETA (methods previously described) were used. Frozen sections of human skin specimens were cut using a microtome to a thickness of 7 μM and DAPI was used for counter staining. Skin imaging was carried out at room temperature using Nikon confocal microscope equipped with NIS-Elements AR 3.10 software.

human skin = experiment: Franz cell diffusion apparatus assay, ETA-treated vs control skin (Example 3); assay type: in vitro ADME; details: ETA-treated human skin compared to non-treated control, 24 hours
Protocol: Permeation experiments with Franz diffusion cells were performed using human skin. The Franz diffusion cells were made of glass with a contact area of 1.35 cm^2, consisting of a donor compartment and a receptor compartment. The skin was mounted between the cell compartments and 2 O-ring shaped glasses were used to position the skin epidermis side-up and dermis side-down. The two cell compartments were held together with a clamp. […] It was kept at 37° C. on a heated plate. After 30 minutes of equilibration of the skin with the receptor solution, 200 μl of the drug solution was applied in the donor compartment with a pipet. The donor compartment was then covered with parafilm to prevent evaporation of the solvent. The receptor solution was continuously stirred using a spinning bar magnet at 200 rpm. Receptor solution samples, 0.2 ml aliquots, were withdrawn through the sampling port of the receptor compartment at various time intervals. The cells were refilled with a same amount of receptor solution to keep the volume of receptor solution constant during the experiment. The experiments were run for 24 hours. The fluorescent intensities collected from receptor compartments from normal and desquamated skin were compared over time using a spectrophotometer. […]

[2] = test system: skin epidermis and dermis; experiment: Removal of S.C. by various methods and possible damage (FIG. 12)
Source text: FIGS. 12A (panel a-d) and 12B depict removal of S.C. by various methods and possible damage. […] Even more damage to the dermis and epidermis are seen in skin treated by dermabrasion (panel d). In FIG. 12A, single headed arrow points to the epidermis and double headed arrows show clefting between epidermis and dermis.
Fractional laser treatment lead to unavoidable heat damage on the side of the holds that each radiated beam made.

human skin explants [3] = details: cited from earlier work
[4] = test system: Stratum Corneum of human skin explants; experiment: ETA desquamation of Stratum Corneum on human skin explants, H&E histology (Example 1)
Protocol: ETA was mixed with 10 mM PIPES at pH 6.5, 10 mM HEPES at pH 7.4, or 10 mM Tris at pH 8.0, at concentrations ranging from 25-1000 μg/mL. Each condition was also done separately as controls. These solutions were applied to human skin explants, obtained and prepared as follows. Human skin specimens were obtained from consenting patients undergoing abdominoplasty. Under a sterile condition, the tissue was placed and washed in a 70% ethanol solution and cold PBS. Fat layers were removed from the tissue, leaving a millimeter of dermis and an intact epidermis. The tissue was then cut into 10 mm×10 mm pieces and placed on gels composed of keratinocyte media supplemented with Human Keratinocyte Growth Supplement purchased from Invitrogen, and mixed in a 1:1 ratio with 2% agarose. The samples were stored at 37° C. in 5% CO2.
ETA solutions were incubated on top of the skin for 4 hours. Each buffer condition was also done separately without the presence of ETA as controls. […] That is to say, Stratum Corneum layer was peeled off mechanically with sterile gauze.
Histological images were taken with an inverted microscope.

[5] = test system: xenograft human skin in SCID mice; experiment: Recovery of S.C. after ETA, serial confocal DAPI staining; assay type: in vivo
Source text: FIG. 11 panels a-i depict DAPI staining on nuclei in an S.C. removed area compared to control (intact S.C.), highlighting the recovery of the S.C. layer over time after the application of ETA on human xenografted skin on mice. […] Day 7-9 and 10-11 (panels e, f) show even less nuclei.
Regarding healing kinetics, using a xenograft human skin in SCID mice model, the healing of removed S.C. was completed within 2 weeks as determined by serial confocal observation of DAPI staining on xenograft skin. With confocal microscope and DAPI staining, the recovery of the S.C. can be observed, as described. DAPI is known to be a fluorescent stain that can pass through the cell membrane and bind strongly to A-T rich regions in DNA, thereby staining the nuclei of cells. With intact S.C., the signal from DAPI cannot be detected by confocal microscope due to the refraction of light against the S.C. as well as the limitation of the depth of light penetration. On the other hand, desquamated skin can produce DAPI signals within cells. DAPI can stain the nuclei of epidermis as long as epidermis remains desquamated. Under inhalation anesthesia, xenografted mouse was taped down on the observatory plates and the xenografted skin was imaged using confocal microscopy. DAPI signal was obtained at baseline and every other day after ETA-mediated desquamation occurred.

[6] = test system: Stratum Corneum, human skin explant model; experiment: ETA desquamation after acetone and/or thioglycolate cream pre-treatment (Example 4)
Source text: FIG. 7 panels a-d depict decreased desquamation time for the removal of S.C. by ETA on the human skin specimen(s) following thioglycolate cream pre-treatment. Samples either received no treatment (panel a), ETA only (panel b), treated with thioglycolate cream only (panel c), ETA and thioglycolate cream (panel d). The depictions are of live confocal imaging of skin. Images are focusing on the horizontal plane at the most superficial levels. Lighter areas depict areas where DAPI dye has entered the epidermis and staining on the Nuclei of the cells. […] Natural folds in skin surface produce “waves” of staining in these planar-focused live images. The waves of staining are seen in panel b, with about 20%-30% of the area stained, and about 90%-95% of the area stained in panel d (“unstained” regions in panel d are skin folds). However when S.C. is present (panels a and c), DAPI cannot penetrate cells, and is shielded from cellular uptake by the S.C., staining is seen to be less than about 10% in panels a and c.
In order to decrease the incubation time of ETA, the following conditions were additionally evaluated:
Studies were carried out in a human skin explant model using surgical abdominal skin specimens.
Lipid Extraction: The S.C. layer consists of lipids and therefore, acetone was selected as a pre-treatment to dissolve or at least disrupt the lipid structure of the S.C.
Protein Denaturation: The S.C. layer also contains keratin proteins. Keratins can be broken down by thioglycolate, which breaks down rigid disulfide bonds. Samples were pre-treated with thioglycolate cream to break down the keratin layer of the S.C. As a result, the incubation time of ETA was shortened (FIG. 7).
Combination Lipid Extraction and Protein Denaturation: With the pre-treatment of acetone and a thioglycolate cream, separation of S.C. started as early as 2 to 2.5 hours.

human skin explants [7] = experiment: Injected versus topically applied ETA, damage after 24 hours (Example 6)
Protocol: FIG. 10 panels a-h depict the effect of injected and topically applied ETA in a series of concentrations between 5 and 1000 ug/mL after 24 hours.
Damage caused by intra-dermal injection of ETA was compared to normal control skin and topically applied ETA control. A very high concentration of ETA (500 μg/mL) was intra-dermally injected into human skin explants (prepared as described in Example 1) and observed after 24 hours. […] In contrast, methods of the invention topically apply ETA only to the outside surface of skin.

[8] = intra-dermally injected, ETA 500 μg/mL, 24 hours

With “human recombinant insulin: FITC tagged human recombinant insulin (5000 Da)” the “skin permeability after removal of S.C. by ETA” value [1] was “substantially increased”, the “time to penetration of the dye” value ([1]; toxin treated skin) was ≤ 6 h and the “penetration of the dye at 12 hours” value ([1]; toxin treated skin) was “some dye penetration”. For the same molecule, the “penetration of the dye at 24 hours” value ([1]; toxin treated skin) was “extensively into the dermis” and the “penetration of the dye at 24 hours” value ([1]; toxin treated skin, listed as FITC-insulin) was “deep penetration of the dye”.

For `CCN(CC)c1ccc2c(-c3ccc(S(=O)(=O)O)cc3S(=O)(=O)[O-])c3ccc(=[N+](CC)CC)cc-3oc2c1` [Sulforhodamine, sulforhodamine B], the “skin permeability, fluorescence in receptor compartment” value (human skin) was “increase in skin permeability”.

With `O=C(O)c1ccccc1O` [salicylic acid] the “injury by chemical peeling” value [2] was “uncontrolled or unavoidable additional injury to epidermis” and the “epidermal or dermal injury” value ([2]; topical 30%) was “damage to the epidermis”.

In the case of `O=C1OC2(c3ccc(O)cc3Oc3cc(O)ccc32)c2ccccc21` [fluorescein], the “skin permeability, fluorescence in receptor compartment” value (human skin) is reported as “increase in skin permeability”.

For `C=C[C@@]1(C)CC(=O)[C@]2(O)[C@@]3(C)[C@@H](O)CCC(C)(C)[C@@H]3[C@H](O)[C@H](OC(C)=O)[C@@]2(C)O1` [Forskolin], the “penetration of intact human skin” value (human skin explants [3]) is listed as “cannot, however, penetrate intact human skin”.

For `O=C(O)CO` [glycololic acid, glycolic acid], the “epidermal or dermal injury” value ([2]; 20% for 1-3 minutes) was “epidermal damage and clefting of the dermal-epidermal junction (DEJ)” and the “injury by chemical peeling” value [2] was “uncontrolled or unavoidable additional injury to epidermis”.

With `CCNc1cc2[s+]c3cc(N(CC)CC)ccc3nc2c2ccccc12.[Cl-]` [EtNBS] the “skin permeability after removal of S.C. by ETA” value [1] was “substantially increased”, the “penetration of the dye at 12 hours” value ([1]; toxin treated skin) was “penetrating past the epidermis” and the “penetration of the dye at 24 hours” value ([1]; toxin treated skin) was “penetrated further”.

B1: ETA: protease that cleaves the extracellular portion of desmoglein-1 (Dsg1); Staphylococcus aureus, SEQ ID NO: 01/02 (protein, listed as Staphylococcus aureus)
chain: MNNSKIISKVLLSLSLFTVGASAFVIQDELMQKNHAKAEVSAEEIKKHEEKWNKYYGVNAFNLPKELFSKVDEKDRQKYPYNTIGNVFVKGQTSATGVLIGKNTVLTNRHIAKFANGDPSKVSFRPSINTDDNGNTETPYGEYEVKEILQEPFGAGVDLALIRLKPDQNGVSLGDKISPAKIGTSNDLKDGDKLELIGYPFDHKVNQMHRSEIELTTLSRGLRYYGFTSVPGNSGSGIFNSNGELVGIHSSKVSHLDREHQINYGVGIGNY
With B1 the “effect of buffer on desquamation speed” value ([4]; 10 mM Tris buffer pH 8.0) was “no effect”, the “time to remove the S.C.” value ([4]; ETA 50 μg/mL) was ≤ 12 h and the “S.C. removal, histology (FIG. 1 panel d)” value ([4]; ETA 50 μg/mL, serial time points up to 12 hours) was “sub-corneal cleavage and the complete removal of the S.C”. For the same molecule, the “incubation time at which efficacy was achieved” value ([4]; ETA 1000 μg/mL, buffered pH 6.5 solution) was “about 3 hours”, the “time to desquamation of the Stratum Corneum” value ([4]; ETA between 5 and 25 μg/mL, topical) was ≤ 24 h and the “damage to the rest of the epidermis or the dermis” value ([4]; ETA between 5 and 25 μg/mL, within 24 hours) was “without damaging the rest of the epidermis or the dermis”. The “time to completely remove the S.C.” value ([4]; pH 6.5) was 4 h, the “desquamation (FIG. 2 panel d)” value ([4]; pH 6.5 PIPES buffer, 4 hours) was “total desquamation” and the “desquamation (FIG. 2 panel b)” value ([4]; pH 7.4 HEPES buffer, 4 hours) was “some desquamation”. For the same molecule, the “DAPI staining of nuclei” value ([5]; Day 12 after ETA) was “no nuclei”, the “DAPI staining of nuclei” value ([5]; Days 1-3 after ETA) was “significant DAPI staining” and the “time to completed healing of removed S.C.” value ([5]; after ETA-mediated desquamation) was ≤ 2 weeks. For the same molecule, the “re-formation of intact Stratum Corneum complete” value ([5]; after application of ETA) was ≤ 15 days, the incubation usually expected ([6]; ETA 50 μg/mL, without pre-treatment) was 4 to 8 h and the “area stained by DAPI (FIG. 7 panel d)” value ([6]; ETA and thioglycolate cream) was 90%-95%. The “area stained by DAPI (FIG. 7 panel b)” value ([6]; ETA only) was 20%-30%, the “change of reaction time after ETA application” value ([6]; acetone pre-treatment) was “slight decrease in reaction time” and the “time at which separation of S.C. started” value ([6]; pre-treatment of acetone and a thioglycolate cream) was 2 to 2.5 h. The “time of almost complete removal of S.C.” value ([6]; pre-treatment of acetone and a thioglycolate cream, ETA 50 μg/mL) was 3 h, the “change of incubation time of ETA” value ([6]; thioglycolate cream pre-treatment) was “shortened” and the “damage to the epidermis or underlying dermis” value (human skin explants [7]; [8]) was “no serious damage”. For the same molecule, the exfoliation (human skin explants [7]; [8]) was “more wide spread exfoliation”, the histological effect (human skin explants [7]; intradermal injection, ETA 5 μg/mL, 24 hours) was “desquamation” and the histological effect (human skin explants [7]; intradermal injection, ETA 50 μg/mL, 24 hours) was “desquamation”. The histological effect (human skin explants [7]; intradermal injection, ETA 500 μg/mL, 24 hours) was “clefting at the dermal-epidermal junction (DEJ)”, the histological effect (human skin explants [7]; intradermal injection, ETA 1000 μg/mL, 24 hours) was “clefting at the dermal-epidermal junction (DEJ)” and the “effect compared with intra-dermal injection” value (human skin explants [7]; topical ETA 50 μg/mL for 24 hours) was “much more modest effect”. The histological effect (human skin explants [7]; topical application, ETA 5 μg/mL, 24 hours) was “no change”, the histological effect (human skin explants [7]; topical application, ETA 50 μg/mL, 24 hours) was “desquamation” and the histological effect (human skin explants [7]; topical application, ETA 500 μg/mL, 24 hours) was “desquamation”. The histological effect (human skin explants [7]; topical application, ETA 1000 μg/mL, 24 hours) was “desquamation” and the “epidermal or dermal injury” value ([2]; controlled removal of S.C. using ETA) was “no epidermal or dermal injury”.

Source: US11045520B2, “Compositions and methods for topical delivery of pharmaceutical agents” (priority 2016, dated 2021)
